Laboratory results as given in patent publication US8084418B2.

Target: XptA2wi (Xenorhabdus nematophilus str Xwi)

XptB1xb + XptC1xb gave a dead corn earworm larvae of 8 (pDAB6026 lysate + purified XptA2wi) (dead insects (of 8)) of 8.
